Measured values from patent US20240218057A1 (ROCKEFELLER UNIVERSITY, published 2024).

B1: C044 (antibody, V domains shown)
VH: EVQLVESGGGLVQPGGSLRLSCAASGFTFSSYSMNWVRQAPGKGLEWVSYISSSSSTIYYADSVKGRFTISRDNAKNSLYLQMNSLRDEDTAVYYCAREAHDGALTDYGDYLNWFDPWGQGTLVTVSS
VL: SYELTQPPSVSVAPGKTARITCGGNNIGSKSVHWYQQKPGQAPVLVIYYDSDRPSGIPERFSGSNSGNTATLTISRVEAGDEADYYCQVWDSSSDHLYWVFGGGTKLTVL
B2: C101 (antibody, V domains shown)
VH: QVQLVESGGGLIQPGGSLRLSCAASGFIVSSNYMSWVRQAPGKGLEWVSVIYSGGSTFYTDSVKGRFTISRDNSKNTLYLQMNSLRAEDTAVYYCVRDYGDFYFDYWGQGTLVTVSS
VL: EIVLTQSPGTLSLSPGERATLSCRASQSVSSSYLAWYQQKPGQAPRLLIYGASSRATGIPDRFSGGGSETDFTLTISRLEPEDCAVYYCQQYGSSPRTFGQGTKVEIK
B3: C566 (antibody, V domains shown)
VH: QVQLQESGPGLVKSSQTLSLNCSVFGASISSGGYYWTWIRQHPGKGLEWIGYIHYRGTYYNPSLKSRVTMSVDTSKNQFSLKVRSVSAADTAIYYCARAIVVVTLNWFDLWGQGTLVTVSS
VL: NFMLTQPHSVSESPGKTVTISCSGSGGSIASNYVQWYQQRPGSAPTAVIYEDNQRPSGVPDRFSGSIDSSSNSASLTISGLKTEDEADYYCQSYDTSNPVIFGGGTKLTV
B4: C572 (antibody, V domains shown)
VH: EVQLVESGGGLIKPGRSLRLSCTASGFTFGDYAMTWFRQAPGKGLEWVGFIRSKAYGGTTGYAASVKYRFTISRDDSKSIAYLQMDSLKTEDTAVYYCTRWDGWSQHDYWGQGTLVTVSS
VL: DIVMTQSPLSLSVTPGEPASISCRSSQSLLHSNGNNYFDWYLQKPGQSPQLLIYLASNRASGVPDRFSGSGSGTDFTLKISRVEAEDVGVYYCMQVLQIPYTFGQGTKLEI
B5: C570 (antibody, V domains shown)
VH: QVQLQESGPGLVKPSETLSLTCTVSGASISSYYWSWIRQPPGKGLEWIGYIYYSGSTNYNPSLKSRVTISLDTSKNQFSLQLSSVTAADTAVYYCATYYFDNSGYSYGLDVWGQGTTVTVSS
VL: DIQMTQSPSSLSASVGDRVTIACRASQSISSYLHWYQQQPGKAPKLLIYAVTNLQSGVPSRFSGSGSGTDFTLTISSLQPEDFATYYCQQSYSLPQTFGQGTKVEIK
B6: C580 (antibody, V domains shown)
VH: EVQLVQSGAEVKKAGESLKISCNSSGYSFTNYWIAWVRQVPGKGLEWMGIIYLGDSDTRYSPSFQGRVTISADKSISAAYLHWSSLKASDTAIYYCARGGPPGGVKLELTDFWGQGTLVTVSS
VL: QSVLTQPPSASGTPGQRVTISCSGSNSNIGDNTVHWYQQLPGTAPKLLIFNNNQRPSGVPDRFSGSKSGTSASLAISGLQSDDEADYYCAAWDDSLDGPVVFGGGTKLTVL
B7: C573 (antibody, V domains shown)
VH: QVQLQESGPGLVKPSGTLSLTCAVSGGSISTVNWWSWVRQPPGKGLEWIGEIHHSGNTNHNPSLRSRVTISVDKSKNQFSLKLRSVTAADTAVYYCARDGGRPGDAFDLWGQGTMVTVSS
VL: QSALTQPASVSGSPGQSITISCTGTSSDVGGYNYVSWYQQHPGKVPKVMIYDVSNRPSGISNRFSGSKSGNTASLTISGLQAEDEADYYCNSYRSNSTRVFGTGTKVTV

biological target: SARS-CoV-2 receptor-binding domain (WT RBD; S protein residues 319-539) (SARS-CoV-2, UniProt P0DTC2 319-539); experiment: BLI (Octet Red), IgG on protein A biosensor, WT RBD in solution, 1:1 fit

B1 gave a Kd of 189 nM.

biological target: SARS-COV-2 RBD (SARS-COV-2, UniProt P0DTC2 319-539); experiment: ELISA, RBD coated on plate

Going from B2 to B3, the EC50 rises from 1.51 ng/mL to 5.88 ng/mL (3.9-fold).

First: B4
Second: B5
The EC50 of the first is 3.9-fold higher: 2.9 ng/mL for the first, 0.74 ng/mL for the second.

B6 and B7 are within 1.5-fold of each other in EC50: 1.81 ng/mL for the first, 2.2 ng/mL for the second.
